Data as given in paper PMC6298231.

Target: Thrombospondin-1, full-length 185 kDa protein released by endothelial cells (human (endogenous in microvascular endothelial cells)) (UniProt P07996)
Experiment: non-reducing SDS-PAGE with immunoblot

- stoichiometry N: 3
Substance: Thrombospondin-1, full-length 185 kDa protein released by endothelial cells (from UniProt P07996 19-1170) (natural protein)
